Usually Km stands for the concentration of substrate that gives half-maximal velocity.

The test system of data set [1] is CC(=O)SCC[N+](C)(C)C. Put plainly: purified protein, by the assay type. To be noted: sodium-phosphate buffer pH 8, 27°C.
The test system of data set [2] is CC(=O)SCCC(C)(C)C. Put plainly: purified protein, by the assay type. The settings on record: sodium-phosphate buffer pH 8, 27°C.

Take “recombinant HuAChE mutant Phe338Ala (Homo sapiens; F369A)”: the Km stood at 240 ± 20 µM in data set [1] (other: Phe338Ala) and 300 ± 70 µM in data set [2] (other: Phe338Ala).

On to “recombinant HuAChE mutant Tyr337Ala (Homo sapiens; Y368A)”, for which the results for the Michaelis-Menten constant (Km) in data set [1] (other: Tyr337Ala) and in data set [2] (other: Tyr337Ala) were 100 ± 10 µM and 200 ± 30 µM, respectively.

For the substance “recombinant HuAChE mutant Glu450Ala (Homo sapiens; E481A)”, the Km in data set [1] (other: Glu450Ala) was 350 ± 40 µM; in data set [2] (other: Glu450Ala) it was 200 ± 40 µM.

Turning to “recombinant HuAChE mutant Glu202Gln (Homo sapiens; E233Q)”, the Km in data set [1] (other: Glu202Gln) worked out at 350 ± 40 µM; in data set [2] (other: Glu202Gln) it was 230 ± 30 µM.

The values above are taken from patent publication EP0651055A2 (priority 1993, dated 1995).
